± gives the uncertainty stated by the source.

The series can be described thus: amyloid nucleation score (Sup35N fusion, yeast selection) (log enrichment); library NNK1; higher = more nucleation; inactive = no reads after selection. The gist of the method:
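The nucleation score is the DiMSum log enrichment of output over input reads, centred on the mode score of non-aggregating sequences. Only sequences with 100 or more input reads were scored, using Illumina sequencing of input and output plasmid inserts. Psi-negative yeast expressing Sup35N fused to peptides of 20 random codons were induced 24 hours with 100 μM copper sulfate and grown 7 days at 30°C on medium lacking adenine and uracil.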
Take RKLDASHYMPVSDLEFCCMC: the amyloid nucleation score worked out at 6.752 ± 0.048.
In the case of RKLFAY, the amyloid nucleation score entry is “inactive”.
For RKRRVSSLPEMGHSGSEYIG the value was 0.412 ± 0.67; for RKWRVCDKND, -0.491 ± 0.86.
In the case of RLARWPEPLIRCFAS it was 0.594 ± 0.55; in that of RLAVLEELMVRICIVIRNFW, -0.328 ± 0.69; in that of RLAWPRKSSSCN, 0.774 ± 0.45.
For RLHAVTSLCR the value was 5.42 ± 0.1; for RLIIME, “inactive”; for RLLASGFLSTRFR, 0.143 ± 0.86.
RLLRFGENFDCWKYLNVALE displayed an amyloid nucleation score of 0.004 ± 0.42.
As to RLTCFRGLGNIYIELINMVN, the amyloid nucleation score is -0.376 ± 0.23.
In the case of RLTVSGVTLGSVTHAFCGAP it was 0.267 ± 0.67.
For RLTYSSCSGNLWYFRFKSVE the value was 0.415 ± 0.67; for RLVEQFRGMLLWY, -0.673 ± 0.64.
The substance RLVIRSGTNAGMVGRSWGGC came in with an amyloid nucleation score of -0.151 ± 0.3.
In the case of RLVSMEVCCTARLPCPYLLK it was 2.09 ± 0.25; in that of RLYPL, 0.908 ± 0.34; in that of RLYPQYLNFKVCKFGSLDGG, -0.836 ± 0.31.
In the case of RLYWSCCDRVDTFLCVF it was 4.43 ± 0.099; in that of RMAHVKHFL, 4.52 ± 0.082; in that of RMAWMEGRPGDRMSRYGTSC, “inactive”.
For RMDSGIGDRSTGGDRTNGMW the value was -0.546 ± 0.53; for RMERGKNLQMWEGQEVGAEN, -1.19 ± 0.77; for RMFEVARSSKRSLFHSILET, 0.109 ± 0.26.
For RMFNQAI, the amyloid nucleation score was -0.394 ± 0.74.
In the case of RMGVA it was 0.644 ± 0.92.
For RMIKNYSIS the value was 0.89 ± 0.55; for RMRRLCVSEGRDLSGECCYM, 0.544 ± 0.3.
For RMSSIKYVMWGHFAIVSTKV the value was 1.99 ± 0.43; for RMVLPVSNLFCAFPGTGGGS, -0.577 ± 0.32.
As for RNCNWDYEVNIKWRVRVEFL, the amyloid nucleation score entry is “inactive”.
In the case of RNGCKFTKLFETVRFKEEGF it was -1.03 ± 0.48; in that of RNLLNFFKISDTSTALDLLY, -0.728 ± 0.52.
For RNPTFFAMCSMCWLSTT the value was 0.852 ± 0.97; for RNSMQILASLNNMDQRPLWR, 1.51 ± 0.51.
In the case of RNWREVSYMIQVGW it was -0.186 ± 0.29; in that of RPCNEGFWLHNHGRSNSSSS, -0.462 ± 0.52; in that of RPKSEISSNFLVDMGFYREM, 0.808 ± 0.88.
As for RPSTLCFTIIRVYKLSRSPT, the amyloid nucleation score amounted to 2.65 ± 0.074.
For RQEVKAMGRFTATSLGTHSR the value was 0.399 ± 0.47.
Substance RQLKVARTGLWLGFTFCIQE gave an amyloid nucleation score of 0.24 ± 0.89.
For RQLTSVCYKSVDGE the value was 0.516 ± 0.93; for RQVPGIKCKSFTLYFADITL, 3.85 ± 0.1.
In the case of RRCCNVERGSAKVALTV it was -0.153 ± 1.3.
In turn, RRDDVCELLVIP returned an amyloid nucleation score of 0.351 ± 0.51.
For RRIFRYSMNNLNVFVYNRFP the value was -0.277 ± 0.51; for RRLLISPMTYVSDLASIQGC, 0.175 ± 0.26; for RRPIGMACGDGRVYFWDHTA, -0.036 ± 0.47.
In the case of RRRCYVVSCCLVALACLACF it was 0.412 ± 0.8.
For RRREKHAMDPELRARGQQ the value was -0.106 ± 0.73; for RRSESGKCFDLLSSSLSVIN, -0.786 ± 0.73.
RRSSILVNTGYPDLGYVMGD returned an amyloid nucleation score of -1.18 ± 1.3.
As for RRTLSSGVSLYCYPKLGVAR, the amyloid nucleation score is -0.24 ± 0.53.
For RSDDKVSRSVGDHCTVGVLR the value was 6.441 ± 0.061; for RSEVEFNTPHLLKCVPDMSF, 0.587 ± 0.42; for RSFVNARSSYDVGFFGWNGC, 2.29 ± 0.14.
In the case of RSFVSEGYFGCWDRDTDYTD it was -0.894 ± 1.2; in that of RSLLHCYHNKWMSVRTAFSP, 0.642 ± 0.66; in that of RSMGKIMIRENQRSLVMLSH, 0.522 ± 0.57.
RSMWICLWACYNLMVIRWPG showed an amyloid nucleation score of -0.446 ± 0.54.
The substance RSNPMTVMVSCLDEVVS displayed an amyloid nucleation score of -0.536 ± 0.49.
In the case of RSPHVAGYNMKAGSDRSNIT it was 0.052 ± 0.26; in that of RSQNLGGVFGET, -0.066 ± 0.41.
In turn, RSQRGRPWEGGLSTSLGVRR gave an amyloid nucleation score of -0.736 ± 1.2.
Turning to RSQVSSFTYSPSRATPKRRL, the amyloid nucleation score came to 0.508 ± 0.5.
For RSRLLSFGVNGGWYIKMLIS the value was -0.028 ± 0.61.
For RSRNSPTR the value was -0.027 ± 0.37.
For RSSCKTTLEIIGVLRMRVYA the value was 0.769 ± 0.45; for RSTGTGTICV, “inactive”; for RSVPLFDHPWNRVTLRFSIL, 0.714 ± 0.47.
In turn, RSWDRYMFGRNRCVDWGR yielded an amyloid nucleation score of 0.107 ± 0.9.
In the case of RSYSTCFPLIVLSK it was 0.303 ± 0.28.
In the case of RTCDIRSLHPTTEGSETCGR, the amyloid nucleation score was 0.306 ± 0.56.
For RTGPLSVASGAVPYGYQPWL the value was -0.203 ± 0.62; for RTINYTAMWCYS, 0.721 ± 0.41.
In the case of RTLGDSNGNNVGLQVVPKCL it was -0.108 ± 0.31.
In turn, RTSPN had an amyloid nucleation score of -0.141 ± 0.37.
Substance RTVTWEMQKVDWSLWSCRWL displayed an amyloid nucleation score of 2.56 ± 0.17.
For RVILFFRFIAILEDCATVSF the value was -0.544 ± 0.25.
RVLCCRYN returned an amyloid nucleation score of 0.19 ± 0.51.
In the case of RVLLSSVSDM it was -0.766 ± 2.4.
For the substance RVLVDPRSSFVYSTRFDDD, the amyloid nucleation score was 0.2 ± 0.45.
For RVNTETMITGESGMSIDELM the value was 1.03 ± 0.76.
Turning to RVRILITYM, the amyloid nucleation score is 1.18 ± 0.17.
For RVRLVWSSCQGDEGFYGLCP the value was 1.36 ± 0.18; for RVRVSLTWQLISLVVMSEYR, 0.809 ± 0.64.
In the case of RVTVTLFYMFNNRGEGKSQA it was 3.44 ± 0.12.
For RVVLCDI the value was 0.261 ± 0.75; for RVVPGGRLRYVNMVF, 1.26 ± 0.67; for RVVSCMTSRMLWSMRDPIYY, 0.217 ± 0.41.
RVVWVVFGWGLIHLGGLLCG registered an amyloid nucleation score of 0.146 ± 0.81.
For RVWCKWH the value was 0.027 ± 1.4.
For RVWMGFDWIEDESRLDSTM the value was 0.21 ± 0.82; for RWAVLACFCMGD, 0.434 ± 0.81; for RWFYSCDVVAFKGH, 0.584 ± 0.84.
The substance RWIPQNMHQLWKASDGNERM had an amyloid nucleation score of -0.697 ± 0.41.
In the case of RWKRVIMSQHQVVYVNSWMV it was -0.484 ± 1.9; in that of RWLDYYADNARHVSQTLRRR, -0.575 ± 0.64.
In turn, RWLGRRMRAGFAYGAFRTGY returned an amyloid nucleation score of 0.054 ± 0.8.
For RWVPYHFV the value was 2.77 ± 0.13; for RWYSHFSAMQWGATLCFWGL, 2.64 ± 0.11.
For RYAWVTMVVYACLQLGSASR the value was 0.678 ± 0.21.

(Values after the supplement of paper PMC12042874.)
